Here are results for 2 molecules from patent CN114195896A (AQUILARIA SINENSIS QINGSU BIOTECHNOLOGY CO LTD, dated 2022).

The chains are these.
B1: 商业化BCMA抗原蛋白 (ACRO BIOSYSTEMS, 货号BCA-H522y-1mg) (receptor, UniProt Q02223 1-54, looked up)
chain: MLQMAGQCSQNEYFDSLLHACIPCQLRCSSNTPPLTCQRYCNASVTNSVKGTNA
notes: also called 目标抗原BCMA; 靶蛋白BCMA
B2: 16-B7重组抗体 (16-B7 recombinant antibody, VHH fused to hIgG1 Fc) (Fc fusion)
chain: QARFVESGGGLVQSGGSLVLSCTVSDVTLDDYVTAWFRQAPGKEREGVSCISKRNFTSYVDSVKGRFTTSRDITKNTVLLQMNALTPEDTGVYYCATPILPSLAFGEVCSLQTEFRSWGPGTRVTVSS
notes: also called 16-B7纯化重组抗体; 原始序列16-B7; not shown: human IgG1 Fc from the expression vector pcDNA3.1-hIgG1-Fc2

Assay [1] addresses T1, 16-B7-HM4人源化重组抗体 (humanised 16-B7-HM4 recombinant antibody, VHH fused to hIgG1 Fc) (human, UniProt P01857-1 99-330 = IgG part, limits assumed).
T1 construct: domain: Fc; also called 人源化重组抗体16-B7-HM4
Kind of assay: SPR, BCMA immobilised on the chip, recombinant antibody as the mobile phase. For orientation: SPR reads the build-up and loss of mass on a sensor chip optically.

The target in assay [2] is BCMA expressed on recombinant cells (CHO-BCMA; Nalm6-BCMA-LUC) (UniProt Q02223). Kind of assay: flow cytometry on CHO-BCMA cells, purified antibody at 10, 2, 0.4 and 0.08 μg/mL. In general terms: Flow cytometry measures light scatter and fluorescence of single cells or particles in a stream.
The target in assay [3] is B1. Kind of assay: SPR, BCMA immobilised on the chip, recombinant antibody as the mobile phase.

T1 sequence (P01857 other isoform, or with tags, fused parts or gaps limits assumed): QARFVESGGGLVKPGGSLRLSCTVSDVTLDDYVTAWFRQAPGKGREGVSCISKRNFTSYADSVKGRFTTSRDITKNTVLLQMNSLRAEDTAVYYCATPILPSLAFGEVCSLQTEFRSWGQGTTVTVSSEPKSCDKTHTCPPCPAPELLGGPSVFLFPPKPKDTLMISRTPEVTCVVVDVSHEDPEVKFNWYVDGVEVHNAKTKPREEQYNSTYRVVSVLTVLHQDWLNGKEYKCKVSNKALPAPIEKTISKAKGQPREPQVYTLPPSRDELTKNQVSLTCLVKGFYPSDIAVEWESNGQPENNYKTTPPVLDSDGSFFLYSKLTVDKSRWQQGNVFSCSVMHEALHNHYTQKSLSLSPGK

Consider B1, for which the Kd in assay [1] is 1.06 nM.

Consider B2, for which the antibody concentration at saturation in assay [2] turned out to be 2 µg/mL. The Kd in assay [3] is 3.73 nM.

The Kd is the concentration at which binding is half-saturated.
